{"source": "patent US20110008258A1", "about": "“METHODS RELATING TO BREATHING DISORDERS” (SAMSARA MEDICIN AB, priority 2007, published 2011)", "key": {"[1]": {"target": "T1, mPGES-1 enzyme (Homo sapiens, UniProt O14684)", "T1 sequence (O14684 1-152)": "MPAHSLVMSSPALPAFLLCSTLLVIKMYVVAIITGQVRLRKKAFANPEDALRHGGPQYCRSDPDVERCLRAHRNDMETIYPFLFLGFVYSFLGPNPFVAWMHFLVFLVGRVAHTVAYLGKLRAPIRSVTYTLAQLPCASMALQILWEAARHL", "conditions": "reported in refs 75-77; read-out: IC50, inhibition of mPGES-1; cited from earlier work"}, "[2]": {"test_system": "mPGES-1^+/+ mice", "assay": "Whole-body flow plethysmography after i.p. IL-1β, mPGES-1+/+ mice", "type": "in vivo", "protocol": "(§1) A Plexiglas chamber (35 ml) was connected to a highly sensitive direct airflow sensor (0-200 ml/min; TRN3100, Kent Scientific Corporation, Litchfield, Conn., USA). The flow signal was amplified by a four-channel amplifier (P/N 770 S/N 5; SENSElab, Somedic Sales, Hörby, Sweden), converted to digital signal, and recorded at 100 Hz by an online computer using DasyLab software (Datalog GmbH & Co. KG, Mönchengladbach, Germany). Respiratory frequency (fR, breaths/min), tidal volume (VT, μl/breath), and minute ventilation (VE, μl/min) were calculated. […] As described previously, the chamber was calibrated by repeatedly injecting standardized volumes of air (5-200 μl) with preset precision syringes (Hamilton Bonaduz AG, Switzerland) (6).\n(§2) Each mouse received an intraperitoneal injection (0.01 ml/g) of IL-1β (10 μg/kg) or vehicle. At 70 min, the mouse was placed unrestrained into the plethysmograph chamber. Respiration was assessed during 4 min of normoxia (21% O2) followed by 1 min of hyperoxia (100% O2). After a 5 min recovery period in normoxia, the respiratory response to anoxia (100% N2) was examined. Finally, 100% O2 was administered for 8 min, and the ability to autoresuscitate was evaluated. Skin temperature was recorded at baseline, at 70 min, and after removal from the chamber. Rectal temperature was not measured as rectal probe placement may alter respiratory behavior. The anogenital distance was measured to approximate gender.\n(§3) Periods of calm respiration without movement artefact were selected for analysis. Mean fR, VT, and VE values during normoxia and hyperoxia as well as the anoxic response (i.e., hyperpnea, primary apnea, gasping, secondary apnea, and autoresuscitation) were analyzed as described previously (6, the disclosure of which is expressly incorporated herein by reference). Survival was recorded for all animals. Apnea was defined as cessation of breathing for three respiratory cycles. Regularity of breathing was quantified using the coefficient of variation (C.V.) (i.e., SD divided by mean of breath-by-breath interval during 60 periods).\n(§4) As there is a variable response to anoxia based upon age (53), we attempted to perform all recordings at age P9; however, in an effort to minimize confounding age-related effects, weight was used as a correlate of age and only animals with weights within 1 SD of the population mean weight were included in the anoxia and survival analyses (6)."}, "[3]": {"test_system": "mPGES-1^−/− mice", "assay": "Whole-body flow plethysmography after i.p. IL-1β, mPGES-1−/− mice", "type": "in vivo", "protocol": "as §1, §2, §3, §4"}, "[4]": {"test_system": "EP3R^−/− mice", "assay": "Whole-body flow plethysmography after i.p. IL-1β, EP3R−/− mice", "type": "in vivo", "protocol": "as §1, §2\nas §3, with “periods). […]” for “periods).”"}, "[5]": {"test_system": "mPGES-1", "assay": "mPGES-1 activity in brain membrane fraction after IL-1β", "type": "in vivo, mice", "protocol": "Newborn mouse brains (n=33) were homogenized in 0.1M KPi (potassium inorganic phosphate) buffer containing 0.25M sucrose, 1× complete protease inhibitor (Roche Diagnostics) and 1 mM reduced glutathione followed by sonication. Membrane fraction was isolated by subcellular fractionation. mPGES-1 activity was measured in the membrane fraction as described previously (52, the disclosure of which is expressly incorporated herein by reference)."}, "[6]": {"conditions": "9 d-old mPGES-1+/+ mice, IL-1β i.p., hyperoxia (100% O2)"}, "[7]": {"conditions": "9 d-old mPGES-1+/+ mice, IL-1β i.p., normoxia"}, "[8]": {"conditions": "mPGES-1+/+ mice, anoxia at 80 min after IL-1β"}, "[9]": {"conditions": "9 d-old mPGES-1−/− mice, IL-1β i.p., hyperoxia (100% O2)"}, "[10]": {"conditions": "9 d-old mPGES-1−/− mice, IL-1β i.p., normoxia"}, "[11]": {"conditions": "mPGES-1−/− mice, anoxia at 80 min after IL-1β"}, "[12]": {"conditions": "EP3R wildtype mice, 90 min after IL-1β"}}, "data": [{"molecule": "CCCCC/C=C\\C\\C=C/C=C/C=C/[C@@H](SC[C@H](NC(=O)CC[C@H](N)C(=O)O)C(=O)NCC(=O)O)[C@@H](O)CCCC(=O)O", "note": "[leukotriene C4]", "values": [{"measurement": "IC50", "setting": "[1]", "value": 5, "unit": "µM"}]}, {"molecule": "CSc1ccc(/C=C2/C(C)=C(CC(=O)O)c3cc(F)ccc32)cc1", "note": "[sulindac sulfide]", "values": [{"measurement": "IC50", "setting": "[1]", "value": 80, "unit": "µM"}]}, {"molecule": "IL-1β: Recombinant mouse interleukin-1β (Nordic Biosite AB), pro-inflammatory cytokine given i.p. to neonatal mice (protein, UniProt P10749 118-269, looked up) Interleukin-1 beta: VPIRQLHYRLRDEQQKSLVLSDPYELKALHLNGQNINQQVIFSMSFVQGEPSNDKIPVALGLKGKNLYLSCVMKDGTPTLQLESVDPKQYPKKKMEKRFVFNKIEVKSKVEFESAEFPNWYISTSQAEHKPVFLGNNSGQDIIDFTMESVSS", "values": [{"measurement": "fR, normoxia", "setting": "[2]; 9 d-old mPGES-1+/+ mice, IL-1β 10 μg/kg i.p., normoxia, mean±SEM", "value": "224 ± 5", "unit": "breaths/min"}, {"measurement": "VE, hyperoxia", "setting": "[2]; [6]", "value": "628 ± 43", "unit": "µL/min/g"}, {"measurement": "VT, hyperoxia", "setting": "[2]; [6]", "value": "3.9 ± 0.2", "unit": "μl/br/g"}, {"measurement": "fR, hyperoxia", "setting": "[2]; [6]", "value": "155 ± 7", "unit": "breaths/min"}, {"measurement": "VE, normoxia", "setting": "[2]; [7]", "value": "730 ± 38", "unit": "µL/min/g"}, {"measurement": "VT, normoxia", "setting": "[2]; [7]", "value": "3.2 ± 0.2", "unit": "μl/br/g"}, {"measurement": "anoxic survival", "setting": "[2]; mPGES-1+/+ mice, 5 min anoxia at 80 min after IL-1β i.p.", "value": "significantly reduced anoxic survival"}, {"measurement": "Hyperpnea fR", "setting": "[2]; mPGES-1+/+ mice, anoxia (100% N2) at 80 min after IL-1β", "value": "390 ± 11", "unit": "breaths/min"}, {"measurement": "Gasping Response Duration", "setting": "[2]; [8]", "value": "82 ± 7"}, {"measurement": "Gasping Response Gasp #", "setting": "[2]; [8]", "value": "30 ± 2"}, {"measurement": "Gasping Response Gasp fR", "setting": "[2]; [8]", "value": "23 ± 1"}, {"measurement": "Hyperpnea Duration", "setting": "[2]; [8]", "value": "61 ± 2"}, {"measurement": "VE, hyperoxia", "setting": "[3]; [9]", "value": "795 ± 67", "unit": "µL/min/g"}, {"measurement": "VT, hyperoxia", "setting": "[3]; [9]", "value": "3.9 ± 0.3", "unit": "μl/br/g"}, {"measurement": "fR, hyperoxia", "setting": "[3]; [9]", "value": "206 ± 11", "unit": "breaths/min"}, {"measurement": "VE, normoxia", "setting": "[3]; [10]", "value": "660 ± 41", "unit": "µL/min/g"}, {"measurement": "VT, normoxia", "setting": "[3]; [10]", "value": "2.7 ± 0.1", "unit": "μl/br/g"}, {"measurement": "fR, normoxia", "setting": "[3]; [10]", "value": "245 ± 7", "unit": "breaths/min"}, {"measurement": "Hyperpnea fR", "setting": "[3]; mPGES-1−/− mice, anoxia (100% N2) at 80 min after IL-1β", "value": "338 ± 24", "unit": "breaths/min"}, {"measurement": "Gasping Response Duration", "setting": "[3]; [11]", "value": "146 ± 23"}, {"measurement": "Gasping Response Gasp #", "setting": "[3]; [11]", "value": "36 ± 3"}, {"measurement": "Gasping Response Gasp fR", "setting": "[3]; [11]", "value": "18 ± 2"}, {"measurement": "Hyperpnea Duration", "setting": "[3]; [11]", "value": "57 ± 2"}, {"measurement": "anoxic survival", "setting": "[3]; mice lacking mPGES-1, 5 min anoxia at 80 min after IL-1β i.p.", "value": "did not decrease survival"}, {"measurement": "hypoxic ventilatory response", "setting": "[4]; EP3R−/− mice, IL-1β i.p.", "value": "unable to affect the hypoxic ventilatory response"}, {"measurement": "ventilation during normoxia or hyperoxia", "setting": "[4]; EP3R−/− mice, IL-1β i.p.", "value": "did not alter ventilation"}, {"measurement": "anoxic survival", "setting": "[4]; mice lacking EP3R, 5 min anoxia at 80 min after IL-1β i.p.", "value": "did not decrease survival"}, {"measurement": "mPGES-1 activity (PGE2), brainstem", "setting": "[5]; [12]", "value": "1111±49", "unit": "pmol/min/mg protein"}, {"measurement": "mPGES-1 activity (PGE2), cortex", "setting": "[5]; [12]", "value": "710±44", "unit": "pmol/min/mg protein"}, {"measurement": "brainstem mPGES-1 activity compared to control mice", "setting": "[5]; IL-1β-treated mice exposed to anoxia (100% N2, 5 min)", "value": "four-times higher activity"}, {"measurement": "cortex mPGES-1 activity", "setting": "[5]; between 90 and 180 min after IL-1β", "value": "remained unchanged"}, {"measurement": "mPGES-1 activity", "setting": "[5]; mice with genetic deletion of mPGES-1 gene, IL-1β and anoxia", "value": "negligible activity"}, {"measurement": "brainstem mPGES-1 activity compared to saline-treated mice", "setting": "[5]; wildtype mice, 90 min after IL-1β", "value": "approximately two-fold higher activity"}, {"measurement": "increase in brainstem mPGES-1 activity", "setting": "[5]; wildtype mice, 180 min after IL-1β", "value": "four-fold increase"}]}]}
